From publication PMC7536876 (bioRxiv, 2020)

B1: PEDV nsp7 (natural protein)
chain: SKLTDIKCSNVVLLGCLSSMNVSANSTEWAYCVDLHNKINLCNDPEKAQEMLLALLAFFLSKNSAFGLDDLLESYFNDNSMLQ
B2: MERS-CoV nsp7 (natural protein)
chain: SKLTDLKCTSVVLLSVLQQLHLEANSRAWAFCVKCHNDILAATDPSEAFEKFVSLFATLMTFSGNVDLDALASDIFDTPSVLQ
B3: FIPV nsp7 (natural protein)
chain: SKLTEMKCTNVVLLGLLSKMHVESNSKEWNYCVGLHNEINLCDDPDAVLEKLLALIAFFLSKHNTCDLSDLIESYFENTTILQ

Tests used:
Assay in all cases: native MS
[1] = target: PEDV nsp7–8-His6 precursor (PEDV (strain CV777)) (UniProt P0C6Y4)
[2] = target: HCoV-229E nsp7–8-His6 precursor (HCoV-229E) (UniProt P0C6X1)
[3] = target: SARS-CoV nsp7–8-His6 precursor (SARS-CoV (strain Frankfurt-1)) (UniProt P0C6X7)
native MS = target: the molecule itself

Molecule	stoichiometry N (native MS)	further results
PEDV nsp7–8-His6 precursor (from UniProt P0C6Y4) (domain or fragment)	–	stoichiometry N [1]: 2
HCoV-229E nsp7–8-His6 precursor (from UniProt P0C6X1) (domain or fragment)	–	stoichiometry N [2]: 2
SARS-CoV nsp7–8-His6 precursor (from UniProt P0C6X7) (domain or fragment)	–	stoichiometry N [3]: 2
B1	2	–
B2	2	–
B3	2	–
